Assay [1] concerns the target MBP-fused human Nox5β dehydrogenase domain residues 528-719 (human) (UniProt Q96PH1). Briefly: ITC.
Assay [2] concerns the target MBP-fused human Nox5β dehydrogenase domain residues 605-719 (human) (UniProt Q96PH1). The assay can be described thus: ITC.
The target of assay [3] is MBP-fused human Nox5β dehydrogenase domain residues 584-719 (human) (UniProt Q96PH1). Briefly: ITC.
For assay [4], the target named is MBP-fused human Nox5β dehydrogenase domain residues 665-719 (human) (UniProt Q96PH1). The assay can be described thus: ITC.
MBP-fused human Nox5β dehydrogenase domain residues 665-719 (human), sequence (Q96PH1 711-765): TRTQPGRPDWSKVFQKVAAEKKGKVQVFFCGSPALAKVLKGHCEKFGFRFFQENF
The target of assay [5] is human Nox5β CaM-binding domain (CMBD) peptide, residues 671-689 (human). Briefly: ITC.
Assay [6] addresses N-terminal Dansyl-labeled human Nox5β CMBD peptide (human). Briefly: other fluorescence titration.
The target of assay [7] is human Nox5β CaM-binding domain (CMBD) peptide, residues 671-689 (human). Briefly: other fluorescence titration.
For assay [8] the target is unchanged. Briefly: fluorescence polarisation.

MBP-fused human Nox5β dehydrogenase domain residues 528-719 (human), sequence (Q96PH1 574-765): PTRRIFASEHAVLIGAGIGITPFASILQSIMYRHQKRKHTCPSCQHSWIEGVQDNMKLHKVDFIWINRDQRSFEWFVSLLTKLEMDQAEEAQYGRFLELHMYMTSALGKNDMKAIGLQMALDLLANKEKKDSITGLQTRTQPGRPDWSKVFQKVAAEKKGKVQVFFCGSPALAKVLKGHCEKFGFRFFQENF
MBP-fused human Nox5β dehydrogenase domain residues 584-719 (human), sequence (Q96PH1 630-765): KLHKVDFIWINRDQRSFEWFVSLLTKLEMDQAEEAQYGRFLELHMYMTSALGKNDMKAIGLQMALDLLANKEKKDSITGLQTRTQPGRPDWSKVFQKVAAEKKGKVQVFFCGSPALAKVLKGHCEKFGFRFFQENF
MBP-fused human Nox5β dehydrogenase domain residues 605-719 (human), sequence (Q96PH1 651-765): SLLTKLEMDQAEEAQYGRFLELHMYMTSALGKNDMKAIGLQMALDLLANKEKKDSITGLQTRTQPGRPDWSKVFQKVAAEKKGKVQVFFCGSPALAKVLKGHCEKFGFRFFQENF

Turning to “recombinant 6xHis-tagged calmodulin (from UniProt P0DP23 1-149) (natural protein)”, the dH was -19 kcal/mol in assay [1], -14.8 kcal/mol in assay [2], -16.8 kcal/mol in assay [3] and -8.21 kcal/mol in assay [4]. Also, the stoichiometry N ([peptide]/Protein]) is 1.18 in assay [1]; 1.15 in assay [2]; 1.04 in assay [3]; 1.15 in assay [4]; 1.79 in assay [5]; 2.11 in assay [6]. Further, the stoichiometry N ([peptide]/Protein]) worked out at 2.1 in assay [7] and 1.91 in assay [8]. Further, the dH (per mole protein) in assay [5] was -7.85 kcal/mol. The stoichiometry N in assay [5] turned out to be 0.521.

The record behind these values is article PMC8777244.
